Test results: US20210292423A1
Where a chain is given by its changes, count along the chain named.

B1: CODV-Fab BFX-6B10-E4 × CD3 (bispecific antibody, part only; not given: CD3 arm, linkers, constant domains, part only)
light, part: NIVMTQSPKSMSISVGDRVTMNCKASQTVGNNIAWYQQKPGLSPQLLIDYASNRYTGVPNRFTGGGYGTDFILTINSVQAEDAAFYYCQRMYNSPTFGGGTKLELK
heavy, part: EVQLVESGGGLVQPGRSLKLSCAASGFTFSHYNMAWVRQAPKKGLEWVATITYDDHSTYYRDSVKGRFTISRDTAKSTLYLQMDSLRSEDTATYYCARLVNYAFAYWGQGTLVTVSS
B2: CODV-Fab BFX-9B8-G6 × CD3 (bispecific antibody, part only; not given: anti-CD3 arm, linkers, constant domains, V domains shown, not shown: another chain or arm of the molecule; a dimerising Fc or GST; small tags and cut ends)
VL: DIVMTQSPSSLAVSAGETVTINCKSSQSFLSSGDERNYVAWYQHKPGQSPKLLIYWASTRHSGVPDRFIGSGSGTDFTLTISSVQAEDLAIYYCQQYYDTPLTFGSGTKLEIK
VH: EVKLQESGPSLVQSSQTLSLTCTVSGFSLTSYHIHWVRQPPGKGLEWMGVMWSDGDTSYSSALKSRLSISRDTSQSQVFLKMNSLQTEDTATYYCARGDYSSYIYLWFAYWGQGTLVTVSS
B3: CODV-Fab BFX-9D7-C8 × CD3 (bispecific antibody, part only; not given: anti-CD3 arm, linkers, constant domains, V domains shown, not shown: another chain or arm of the molecule; a dimerising Fc or GST; small tags and cut ends)
VL: B2 VL with A15E, E35G, R36K, H44Y, H61Q, S83T
VH: B2 VH with P40T, S60N, D99Y, I104L
B4: CODV-Fab BFX-9F6-G3 × CD3 (bispecific antibody, part only; not given: anti-CD3 arm, linkers, constant domains, V domains shown, not shown: another chain or arm of the molecule; a dimerising Fc or GST; small tags and cut ends)
VL: DIQMTQSPASLSASLGETVTIECRPSEDIHSNVAWYQQKPGNSPQLLIYDASNLADGVPSRFSGSGSGTQYSLKINSLQSEDVASYFCHQYNIYPYTFGSGTKLELK
VH: QVQLQESGPTLVKPGDSVKMSCKASGYTFTDYIIHWVKQSHGKSLEWIGYINPYSDGTNYNEKFKSKATLTVDKSTSTAYMEFSRLTSEDSAIYFCALNYGSYYAMDAWGQGTSVTVSS
B5: CODV-Fab BFX-3B10-E6 × CD3 (bispecific antibody, part only; not given: CD3 arm, linkers, constant domains, part only)
light, part: DVLMTQTPVSLPVSLGGQVSISCRSSQSLVHSDGDTYLHWYLQKPGQSPQLLIYRVSNRFSGVPDRFSGSGSGTDFTLKISRVEPEDLGLYYCLQTTHFPPWTFGGGTKLEMK
heavy, part: QVQLQQSGPELRRPGSSVRLSCKASGYRIKDFLIHWIKNRPEHGLEWIGWIDPEDGETKYAQKFQTKATLTADTSSNTAYMQLSSLTSEDTATYFCARWGDVYYGLMRGHVMDAWGQGTSVTVSS
B6: CODV-Fab 7G3 × OKT3 (bispecific antibody, part only; not given: OKT3 arm, linkers, constant domains, part only)
light, part: DFVMTQSPSSLTVTAGEKVTMSCKSSQSLLNSGNQKNYLTWYLQKPGQPPKLLIYWASTRESGVPDRFTGSGSGTDFTLTISSVQAEDLAVYYCQNDYSYPYTFGGGTKLEIK
heavy, part: EVQLQQSGPELVKPGASVKMSCKASGYTFTDYYMKWVKQSHGKSLEWIGDIIPSNGATFYNQKFKGKATLTVDRSSSTAYMHLNSLTSEDSAVYYCTRSHLLRASWFAYWGQGTLVTVSA
B7: CODV-Fab BFX-2B8-F3 × CD3 (bispecific antibody, part only; not given: CD3 arm, linkers, constant domains, part only)
light, part: EIVLTQSPTSMTASPGEQVTITCRASSSINYMHWYQQKPGASPRPWIYETSKLASGVPDRFSGSASGTSYSLTINNMEAEDAATYYCQQWNYPSWTFGGGTKLELK
heavy, part: EVQLVESGGGLVQPGRSLKLSCAASGFTFSDYNMAWVRQAPKKGLEWVATILYDGGRTYYRGSVKGRFTISRDNAKSTLYLRMDSLRSEDTATYYCATHSRGTDYFDYWGQGVMVTVSS
B8: CODV-Fab BFX-3E3-D3 × CD3 (bispecific antibody, part only; not given: CD3 arm, linkers, constant domains, part only)
light, part: QFVLTQPNSVSTNLGSTVKLSCKRNTGNIGSNYVNWYQQHEGRSPTTMIYRDDKRPDGVPDRFSGSIDRSSNSALLTINNVQTEDEADYFCQSYSSGINIIFGGGTKLTVL
heavy, part: QVQLQESGPGLVQPSQTLSLTCTVSGFSLTTYDVHWVRQPPGKGLEWMGRIQNGGITDYNSALKSRLIISRDTSKSQVFLKMNSVQTEDTAMYFCAKTGSYFYAFDHWGQGTLVTVSS
B9: 5B1-G2 anti-CD3 antibody (hybridoma supernatant) (antibody, V domains shown)
VH: EVQVVETGGSLVQPGKSLKLTCATSGFSFSNAWMHWVRQSPEKQLEWVAQIKDKANNYATYYAESVKGRFTISRDDSKGSIYLQMNSLKEEDTAVYYCRGLYYGLFPSDYWGQGVMVTVSS
VL: DVVMTQTPVSLSVSLGGQVSISCRSSQSLVHNNGNTYLSWYLLKPGQSPQLLIYKVSNRFSGISDRFSGGGSGTDFTLKISRLEPDDLGIYYCGQGTQYPFTFGSGTKLEIK
B10: humanized 4B4 Fab 4B4_11 (VL1_CM3, VH6_BM2) (Fab, V domains shown)
VH: QVQLVESGGRVVQPGRSLRLTCAASGFTFSNAWMHWVRQAPGKQLEWVAQIKARSNNYATYYAESVKGRFTISRDDSKSTIYLQMNSLRAEDTAVYYCRGTYYASKPFDYWGQGTTVTVSS
VL: DVVMTQSPLSLSVTLGQPVSISCRSSQSLVHDNANTYLSWSLQRPGQSPRVLIYKVSNRFSGVPDRFSGSGSGTDFTLKISRVEAEDVGVYYCGQGTQYPFTFGSGTKLEIK
B11: CODV-Fab BFX-2F8-D6 × CD3 (bispecific antibody, part only; not given: anti-CD3 arm, linkers, constant domains, V domains shown, not shown: another chain or arm of the molecule; a dimerising Fc or GST; small tags and cut ends)
VH: QVQLKESGPGLVQPSQTLSLTCTVSGFSLTSYGVSWVRQPPGKGLEWIATISSAGSTYYDLVLKSRLSITRDTSKSQVFLKVHSLQTEDTAIYLCARDAPVFNYGSYNAMDSWGQGTSVTVSS
VL: DIQMTQSPSFLSATVGDRVTINCKASQNINKYLNWYQQKLGEAPKRLIYNTNSLQTGIPSRFSGSGSGTDYTLTISSLQPEDVATYFCLQHKSGLTFGSGTKLEIK
B12: 12D2-E5 Fab (Fab, V domains shown)
VH: EVKLVESGGGLVQPGRSLRLSCAASGFNFYAYWMGWVRQAPGKGLEWIGEIKKDGTTINYTPSLKDRFTISRDNAQNTLYLQMTKLGSEDTALYYCAREERDGYFDYWGQGVMVTVSS
VL: QFVLTQPNSVSTNLGSTVKLSCKRSTGNIGSNYVNWYQQHEGRSPTTMIYRDDKRPDGVPDRFSGSIDRSSNSALLTINNVQTEDEADYFCQSYSSGIVFGGGTKLTVL
B13: 12D2-E5 anti-CD3 antibody (hybridoma supernatant) (antibody, V domains shown)
VH: B12 VH
VL: B12 VL
B14: 5B1-G2 Fab (Fab, V domains shown)
VH: B9 VH
VL: B9 VL

Experiments:
[1] = molecular target: human CD123 (IL3RA) on cells (human) (UniProt P26951); experiment: cell-based or functional assay
[2] = molecular target: human CD123 (IL3RA) on cells (human) (UniProt P26951); experiment: flow cytometry, THP-1 cells, 3 µg antibody
[3] = molecular target: human CD123 (IL3RA) on cells (human) (UniProt P26951); experiment: flow cytometry, TF-1 cells, 3 µg antibody
[4] = molecular target: Macaca fascicularis CD3ε/δ-Fc fusion protein (Macaca fascicularis) (UniProt Q95LI8); experiment: SPR single point, hybridoma supernatant
[5] = molecular target: Macaca fascicularis CD3ε/δ-Fc fusion protein (Macaca fascicularis) (UniProt Q95LI8); experiment: SPR Biacore, Fab
[6] = molecular target: Macaca fascicularis CD3ε/δ-Fc fusion protein (Macaca fascicularis) (UniProt Q95LI8); experiment: SPR Biacore, ratio against human CD3εδ

human CD123 (IL3RA) on cells (human), sequence (P26951 19-378): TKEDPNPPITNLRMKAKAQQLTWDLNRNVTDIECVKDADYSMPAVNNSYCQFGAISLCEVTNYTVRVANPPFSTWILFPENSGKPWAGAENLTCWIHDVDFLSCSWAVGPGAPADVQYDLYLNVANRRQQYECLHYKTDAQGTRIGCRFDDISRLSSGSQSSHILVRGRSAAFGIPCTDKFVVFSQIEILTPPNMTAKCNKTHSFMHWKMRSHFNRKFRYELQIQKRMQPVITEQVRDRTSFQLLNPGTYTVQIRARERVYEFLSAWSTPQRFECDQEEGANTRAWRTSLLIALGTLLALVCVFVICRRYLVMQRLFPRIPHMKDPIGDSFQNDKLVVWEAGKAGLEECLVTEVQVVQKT
Macaca fascicularis CD3ε/δ-Fc fusion protein (Macaca fascicularis), sequence (chain, as listed by the source mutant, chain 1 of 2): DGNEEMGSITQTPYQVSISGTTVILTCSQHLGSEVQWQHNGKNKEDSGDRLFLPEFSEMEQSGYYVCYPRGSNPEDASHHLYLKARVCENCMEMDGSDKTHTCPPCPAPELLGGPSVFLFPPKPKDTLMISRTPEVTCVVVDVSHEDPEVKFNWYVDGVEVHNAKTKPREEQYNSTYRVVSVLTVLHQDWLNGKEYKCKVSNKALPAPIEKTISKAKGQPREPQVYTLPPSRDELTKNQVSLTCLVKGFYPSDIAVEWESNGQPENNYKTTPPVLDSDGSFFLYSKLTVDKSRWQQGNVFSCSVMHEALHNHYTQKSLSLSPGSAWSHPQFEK
Macaca fascicularis CD3ε/δ-Fc fusion protein (Macaca fascicularis), sequence (Q95LI8 22-105, stated change not applied, chain 2 of 2): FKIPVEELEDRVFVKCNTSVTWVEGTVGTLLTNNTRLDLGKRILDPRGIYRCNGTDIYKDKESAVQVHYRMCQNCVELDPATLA

Row | Binder | EC50 [ng/ml] geomean, cytotoxic assay on THP-1 [1] [ng/mL] | % FITC positive Cells [2] [%] | % FITC positive Cells [3] [%] | further results
1 | B1 | 39.7 | – | – | –
2 | B2 | 106 | 48.8 | 31.1 | –
3 | B3 | 86.3 | 88.7 | 50.2 | –
4 | B4 | 13.9 | 99.7 | 60.7 | –
5 | B5 | 429 | – | – | –
6 | B6 | – | – | – | Activity EC50 [ng/ml], cytotoxic assay on THP-1 with human T cells [1]: 16 ng/mL
7 | B7 | 107 | – | – | –
8 | B8 | 12.2 | 99 | 31.6 | –
9 | B9 | – | – | – | RU at 25 nM [4]: 0.5 RU
10 | B10 | – | – | – | Kd [5]: 20.4 nM; koff [5]: 0.00486 s⁻¹; kon [5]: 238000 M⁻¹ s⁻¹
11 | B11 | – | 24 | 9.3 | –
12 | B12 | – | – | – | Ratio KD(cy)/KD(hu) [6]: 4
13 | B13 | – | – | – | RU at 25 nM [4]: 5 RU
14 | B14 | – | – | – | Ratio KD(cy)/KD(hu) [6]: 1
